Measurements reported in PMC5971062 (Biochemistry, 2018).

Target: T1, Enhanced intracellular survival (Eis) protein from Mycobacterium tuberculosis, wild type (Mycobacterium tuberculosis, UniProt P9WFK7)
T1 sequence: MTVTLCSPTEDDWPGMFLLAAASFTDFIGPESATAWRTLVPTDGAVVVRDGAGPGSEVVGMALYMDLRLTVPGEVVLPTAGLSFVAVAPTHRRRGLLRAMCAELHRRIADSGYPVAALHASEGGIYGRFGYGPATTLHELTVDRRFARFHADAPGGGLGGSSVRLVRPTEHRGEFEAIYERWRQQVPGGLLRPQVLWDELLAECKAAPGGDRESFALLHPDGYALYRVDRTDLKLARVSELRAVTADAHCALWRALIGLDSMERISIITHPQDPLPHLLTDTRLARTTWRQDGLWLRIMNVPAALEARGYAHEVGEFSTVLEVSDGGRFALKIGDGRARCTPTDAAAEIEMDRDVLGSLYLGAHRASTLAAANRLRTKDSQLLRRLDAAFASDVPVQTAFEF
Test: crystal structure

ATKAPAKKA [HupB_Mtb 9-mer peptide ATKAPAKKA]: binds.
